Source: patent US5453362, “Eukaryotic transcription protein; host cell factor” (Tularik Inc.)

Columns and labels:
[1] = molecular target: GST-VP16 with insect extract, no Oct-1 POU (Herpes simplex virus, UniProt P06492 P06492:5-411); experiment: EMSA; no specific complex with SL2 or Sf9 extract without Oct-1 POU; conditions: tags: GST; label: 32P end
[2] = molecular target: VP16-induced complex: Oct-1 POU domain + GST-VP16 + partially purified human HCF (Homo sapiens / Herpes simplex virus, UniProt P14859;P06492;P51610 P14859:280-438,P06492:5-411,P51610:2-2035); experiment: EMSA; 50 mM KCl, pH 7.9, 1 mM EDTA, 30 C; complex disrupted by anti-HCF sera (FIG. 4, WGA fraction); conditions: tags: GST on VP16; Oct-1 POU recombinant from E. coli, GST removed by thrombin; label: 32P end
Sequence of VP16-induced complex: Oct-1 POU domain + GST-VP16 + partially purified human HCF (P14859 280-438, chain 1 of 3): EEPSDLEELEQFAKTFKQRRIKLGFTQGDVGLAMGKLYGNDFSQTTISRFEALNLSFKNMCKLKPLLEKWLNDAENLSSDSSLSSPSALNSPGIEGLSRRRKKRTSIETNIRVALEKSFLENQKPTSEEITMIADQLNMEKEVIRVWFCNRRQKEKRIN
Sequence of VP16-induced complex: Oct-1 POU domain + GST-VP16 + partially purified human HCF (P06492 5-411, chain 2 of 3): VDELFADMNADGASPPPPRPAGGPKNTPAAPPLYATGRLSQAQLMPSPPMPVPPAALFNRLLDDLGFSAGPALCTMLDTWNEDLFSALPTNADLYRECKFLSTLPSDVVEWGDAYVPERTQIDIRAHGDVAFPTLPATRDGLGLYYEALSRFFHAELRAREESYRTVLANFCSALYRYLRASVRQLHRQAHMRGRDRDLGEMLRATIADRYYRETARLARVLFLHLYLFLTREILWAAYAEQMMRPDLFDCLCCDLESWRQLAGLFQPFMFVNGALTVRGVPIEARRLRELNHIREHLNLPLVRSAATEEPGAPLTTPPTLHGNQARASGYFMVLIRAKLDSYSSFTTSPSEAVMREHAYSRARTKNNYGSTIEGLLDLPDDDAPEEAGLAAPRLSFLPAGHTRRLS
Sequence of VP16-induced complex: Oct-1 POU domain + GST-VP16 + partially purified human HCF (P51610 2-2035, chain 3 of 3): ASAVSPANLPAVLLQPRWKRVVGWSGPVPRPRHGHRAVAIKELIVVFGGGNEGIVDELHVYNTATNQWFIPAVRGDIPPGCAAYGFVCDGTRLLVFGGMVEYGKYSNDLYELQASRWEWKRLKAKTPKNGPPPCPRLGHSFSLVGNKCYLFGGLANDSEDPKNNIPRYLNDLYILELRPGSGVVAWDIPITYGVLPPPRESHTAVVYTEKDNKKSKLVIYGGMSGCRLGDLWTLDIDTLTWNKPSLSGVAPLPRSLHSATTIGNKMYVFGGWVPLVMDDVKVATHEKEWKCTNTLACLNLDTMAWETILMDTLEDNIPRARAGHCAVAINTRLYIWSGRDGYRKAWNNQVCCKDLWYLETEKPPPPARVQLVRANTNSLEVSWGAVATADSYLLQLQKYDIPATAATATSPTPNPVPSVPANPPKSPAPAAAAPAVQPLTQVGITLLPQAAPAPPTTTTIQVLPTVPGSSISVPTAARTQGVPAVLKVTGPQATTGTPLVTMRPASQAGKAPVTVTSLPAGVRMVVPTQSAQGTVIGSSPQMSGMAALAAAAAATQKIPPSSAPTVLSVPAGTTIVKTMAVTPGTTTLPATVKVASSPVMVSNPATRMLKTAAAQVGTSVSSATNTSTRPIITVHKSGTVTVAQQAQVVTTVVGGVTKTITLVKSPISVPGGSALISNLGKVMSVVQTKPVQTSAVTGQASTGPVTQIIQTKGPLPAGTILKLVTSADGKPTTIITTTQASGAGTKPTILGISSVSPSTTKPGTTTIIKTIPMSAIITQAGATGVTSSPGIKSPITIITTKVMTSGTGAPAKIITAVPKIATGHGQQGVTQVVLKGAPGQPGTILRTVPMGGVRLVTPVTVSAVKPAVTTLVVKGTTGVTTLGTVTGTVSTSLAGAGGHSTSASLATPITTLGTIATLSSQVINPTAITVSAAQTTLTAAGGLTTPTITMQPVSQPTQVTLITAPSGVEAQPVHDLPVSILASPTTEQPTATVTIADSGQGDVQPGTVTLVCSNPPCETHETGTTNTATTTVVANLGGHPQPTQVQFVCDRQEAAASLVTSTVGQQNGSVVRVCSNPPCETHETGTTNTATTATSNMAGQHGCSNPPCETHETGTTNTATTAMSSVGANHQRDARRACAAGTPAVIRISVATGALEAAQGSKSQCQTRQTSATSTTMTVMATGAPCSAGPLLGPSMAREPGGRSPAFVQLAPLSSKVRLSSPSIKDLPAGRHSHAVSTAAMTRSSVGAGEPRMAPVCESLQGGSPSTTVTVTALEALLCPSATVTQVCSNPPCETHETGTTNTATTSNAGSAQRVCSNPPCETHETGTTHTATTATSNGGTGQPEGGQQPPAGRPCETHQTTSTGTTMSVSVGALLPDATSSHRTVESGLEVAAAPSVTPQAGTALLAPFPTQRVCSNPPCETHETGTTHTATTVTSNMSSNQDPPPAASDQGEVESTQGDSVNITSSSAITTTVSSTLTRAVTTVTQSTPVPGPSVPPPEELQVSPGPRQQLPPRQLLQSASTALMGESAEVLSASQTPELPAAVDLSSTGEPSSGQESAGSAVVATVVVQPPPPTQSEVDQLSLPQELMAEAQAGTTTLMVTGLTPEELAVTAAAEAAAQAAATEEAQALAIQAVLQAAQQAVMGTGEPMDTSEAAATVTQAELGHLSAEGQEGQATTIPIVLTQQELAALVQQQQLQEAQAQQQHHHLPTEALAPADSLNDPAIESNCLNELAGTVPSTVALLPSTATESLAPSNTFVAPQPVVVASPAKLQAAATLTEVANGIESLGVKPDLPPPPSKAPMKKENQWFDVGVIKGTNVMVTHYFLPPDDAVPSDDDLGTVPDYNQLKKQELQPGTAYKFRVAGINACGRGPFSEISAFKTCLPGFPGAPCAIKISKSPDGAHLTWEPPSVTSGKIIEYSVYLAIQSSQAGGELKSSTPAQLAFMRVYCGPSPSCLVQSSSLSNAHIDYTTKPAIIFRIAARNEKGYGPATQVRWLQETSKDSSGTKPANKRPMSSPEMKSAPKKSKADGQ

Sequence of GST-VP16 with insect extract, no Oct-1 POU (P06492 5-411, one chain of several): as the sequence (P06492 5-411, chain 2 of 3) above

B1: (Octa+)… ICP0 IE element (dsDNA)
DNA 1: ATGCTAATGATAT
DNA 2: ATATCATTAGCAT
binding result [1]: no binding
binding result [2]: binds
